Laboratory results from patent publication US20150072922A1, “RNASE 7 ANTIMICROBIAL PEPTIDES” (THE RESEARCH INSTITUTE AT NATIONWIDE CHILDREN'S HOSPITAL, priority 2012, published 2015).
Marks after values point to notes of the source that are not given here. Primed or numbered codes have the meaning given here. No end group written: not given here. *: point of attachment. His tag″ = six-residue histidine tag (His-tag) at the NH2-terminus, N[C@@H](Cc1c[nH]cn1)C(=O)N[C@@H](Cc1c[nH]cn1)C(=O)N[C@@H](Cc1c[nH]cn1)C(=O)N[C@@H](Cc1c[nH]cn1)C(=O)N[C@@H](Cc1c[nH]cn1)C(=O)N[C@@H](Cc1c[nH]cn1)C(=O)*; His tag = six-residue histidine tag at the N-terminus, N[C@@H](Cc1c[nH]cn1)C(=O)N[C@@H](Cc1c[nH]cn1)C(=O)N[C@@H](Cc1c[nH]cn1)C(=O)N[C@@H](Cc1c[nH]cn1)C(=O)N[C@@H](Cc1c[nH]cn1)C(=O)N[C@@H](Cc1c[nH]cn1)C(=O)*

Columns and labels:
Test in all cases: Antimicrobial kill (microdilution) assay, MIC/MBC by CFU count
Format in all cases: cell-based
[1] = test system: Staphylococcus saprophyticus (ATCC 15305); details: for antimicrobial activity against S. saprophyticus (in words): MIC/MBC based, mostly compared to full-length RNase 7; for S. saprophyticus MIC: lowest concentration that inhibits the growth of 90% of the inoculation; for S. saprophyticus MIC / S. saprophyticus MBC: 3 hours, 0.1×PBS; for S. saprophyticus MBC: minimum bactericidal concentration
Description: (§1) The antimicrobial activity of RNase 7 and its fragments was estimated using a microdilution assay. Briefly, test bacteria (10^5) were incubated with several concentrations of RNase 7 and each fragment in 50 μl 0.1×PBS buffer for 3 hours in a 37° C. incubator. Each reaction was plated on the appropriate medium and grew overnight at 37° C. The antimicrobial activity was determined by the number of colony-forming units (CFUs) the following day. The minimum inhibition concentration (MIC) is defined as the lowest concentration that inhibits the growth of 90% of the inoculation and the minimum bactericidal concentration (MB C) is defined as the lowest concentration at which less than 99.99% of the initial inoculum is viable.
(§2) Antimicrobial activities of the recombinant peptides were estimated with a microdilution assay. Briefly, the test bacteria (10^4 CFUs) were incubated with various concentrations of RNase 7 and each fragment in 50 ul 0.1×PBS buffer for 3 hours at 37° C. After incubation on Agar plates overnight at 37° C., the number of colony-forming units (CFUs) at each peptide concentration was determined. Using untreated bacterial aliquots as baseline, the minimum inhibition concentration (MIC) was defined as the lowest concentration that inhibits the growth of 90% of the inoculation, and the minimum bactericidal concentration (MBC) was defined as the lowest concentration at which less than 99.99% of the initial inoculum is viable.

Escherichia coli (UTI89) = details: for E. coli MIC: lowest concentration that inhibits the growth of 90% of the inoculation; for E. coli MIC / E. coli MBC: 3 hours, 0.1×PBS; for E. coli MBC: minimum bactericidal concentration
Description: as §1, §2

[2] = test system: Proteus mirabilis (ATCC 7002); details: for antimicrobial activity against P. mirabilis (in words): MIC/MBC based, mostly compared to full-length RNase 7; for P. mirabilis MIC: lowest concentration that inhibits the growth of 90% of the inoculation; for P. mirabilis MIC / P. mirabilis MBC: 3 hours, 0.1×PBS; for P. mirabilis MBC: minimum bactericidal concentration
Description: Uropathogenic Escherichia coli (UTI89) was grown in Luria broth (LB) medium and plated on LB-agar. Uropathogenic Staphylococcus saprophyticus (ATCC 15305) was grown in LB and plated on Trypticase Soy Agar with 5% sheep blood (Fisher Scientific, Pittsburgh, Pa., USA). Uropathogenic Proteus mirabilis (ATCC 7002) was grown in LB and plated on MacConkey II Agar (Fisher Scientific, Pittsburgh, Pa., USA). These organisms were chosen as the primary organisms that account for a majority of Gram-negative and Gram-positive urinary tract infections (UTI). Anti-RNase 7 antibody was generated in rabbit with recombinant human RNase 7 (Biomatik, Wilmington, Del., USA)
as §2

| Molecule | antimicrobial activity against S. saprophyticus (in words) [1] | S. saprophyticus MIC [1] [µM] | S. saprophyticus MBC [1] | antimicrobial activity against E. coli (in words) (Escherichia coli (UTI89); MIC/MBC based, mostly compared to full-length RNase 7) | E. coli MIC (Escherichia coli (UTI89)) | E. coli MBC (Escherichia coli (UTI89)) | antimicrobial activity against P. mirabilis (in words) [2] | P. mirabilis MIC [2] | P. mirabilis MBC [2] |
| --- | --- | --- | --- | --- | --- | --- | --- | --- | --- |
| F:84-128: recombinant C-terminal RNase 7 fragment, amino acids 84 to 128, N-terminal His tag ({His tag}-TSGKYPNCRYKEKRQNKSYVVACKPPQKKDSQQFHLVPVHLDRVL; cysteine pairing not given here) | poor antimicrobial function against all uropathogens | 1.75 | 3.5* uM | poor antimicrobial function against all uropathogens | 1.92** uM | >3.5** uM | poor antimicrobial function against all uropathogens | >3.5** uM | >3.5** uM |
| F:1-45: recombinant N-terminal RNase 7 fragment, amino acids 1 to 45 (SEQ ID NO: 2), N-terminal His tag ({His tag″}-KPKGMTSSQWFKIQHMQPSPQACNSAMKNINKHTKRCKDLNTFLH; ends and bridges not checked; listed as Homo sapiens) |  | 0.13 | 0.5 µM |  | 0.49 µM | 0.98 µM | no activity at high concentrations | >7** uM | >7** uM |
| F:1-107: recombinant N-terminal RNase 7 fragment, amino acids 1 to 107 (SEQ ID NO: 6), N-terminal His tag (protein, listed as Homo sapiens, N-terminal His tag) KPKGMTSSQWFKIQHMQPSPQACNSAMKNINKHTKRCKDLNTFLHEPFSSVAATCQTPKIACKNGDKNCHQSHGPVSLTMCKLTSGKYPNCRYKEKRQNKSYVVACK |  | 0.49 | >1.96* uM |  | 0.57 µM | 0.57 µM |  | .44 µM | .44 µM |
| F:46-128: recombinant C-terminal RNase 7 fragment, amino acids 46 to 128, N-terminal His tag (protein, left off: small tags and cut ends, recombinant C-terminal RNase 7 fragment, amino acids 46 to 128, N-terminal His tag) EPFSSVAATCQTPKIACKNGDKNCHQSHGPVSLTMCKLTSGKYPNCRYKEKRQNKSYVVACKPPQKKDSQQFHLVPVHLDRVL | MICs similar to full-length | 0.22 | 1.75* uM |  | 0.34 µM | .68 µM |  | 3.5 µM | >3.5** uM |
| F:1-83: recombinant N-terminal RNase 7 fragment, amino acids 1 to 83 (SEQ ID NO: 4), N-terminal His tag (protein, listed as Homo sapiens, N-terminal His tag) KPKGMTSSQWFKIQHMQPSPQACNSAMKNINKHTKRCKDLNTFLHEPFSSVAATCQTPKIACKNGDKNCHQSHGPVSLTMCKL |  | 0.34 | 0.69 µM |  | 0.43 µM | 0.87 µM |  | .44 µM | .88 µM |
| F:56-128: recombinant C-terminal RNase 7 fragment, amino acids 56 to 128, N-terminal His tag (protein, left off: small tags and cut ends, recombinant C-terminal RNase 7 fragment, amino acids 56 to 128, N-terminal His tag) QTPKIACKNGDKNCHQSHGPVSLTMCKLTSGKYPNCRYKEKRQNKSYVVACKPPQKKDSQQFHLVPVHLDRVL | MICs similar to full-length | 0.22 | 1.75* uM |  | 0.83 µM | 1.65 µM |  | >7** uM | >7** uM |
